T1: human CDH6-His tag (Acro Biosystems, catalog number CA6-H5229) (human, UniProt P55285 54-615)
T1 construct: Bought recombinant protein; also called hCDH6; not shown: His tag
T1 sequence (looked up): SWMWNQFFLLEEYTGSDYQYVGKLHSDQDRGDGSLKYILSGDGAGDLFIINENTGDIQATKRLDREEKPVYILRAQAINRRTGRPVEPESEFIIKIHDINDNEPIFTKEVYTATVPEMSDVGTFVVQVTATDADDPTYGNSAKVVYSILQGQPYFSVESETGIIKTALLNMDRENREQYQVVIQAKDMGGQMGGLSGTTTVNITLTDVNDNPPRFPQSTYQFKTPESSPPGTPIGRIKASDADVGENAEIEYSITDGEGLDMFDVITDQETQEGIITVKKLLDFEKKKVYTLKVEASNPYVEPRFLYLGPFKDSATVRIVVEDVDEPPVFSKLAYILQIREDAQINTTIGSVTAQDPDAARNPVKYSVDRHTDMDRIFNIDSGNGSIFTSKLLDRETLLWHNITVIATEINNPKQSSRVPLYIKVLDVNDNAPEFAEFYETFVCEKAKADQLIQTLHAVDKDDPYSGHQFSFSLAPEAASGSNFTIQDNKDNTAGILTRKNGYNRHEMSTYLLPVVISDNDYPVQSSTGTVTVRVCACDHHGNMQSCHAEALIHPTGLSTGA

T2: human CDH16-His tag (Sino biological, catalog number 10915-H08H) (human, UniProt O75309 19-786)
T2 construct: Bought recombinant protein; also called hCDH16; not shown: His tag
T2 sequence (looked up): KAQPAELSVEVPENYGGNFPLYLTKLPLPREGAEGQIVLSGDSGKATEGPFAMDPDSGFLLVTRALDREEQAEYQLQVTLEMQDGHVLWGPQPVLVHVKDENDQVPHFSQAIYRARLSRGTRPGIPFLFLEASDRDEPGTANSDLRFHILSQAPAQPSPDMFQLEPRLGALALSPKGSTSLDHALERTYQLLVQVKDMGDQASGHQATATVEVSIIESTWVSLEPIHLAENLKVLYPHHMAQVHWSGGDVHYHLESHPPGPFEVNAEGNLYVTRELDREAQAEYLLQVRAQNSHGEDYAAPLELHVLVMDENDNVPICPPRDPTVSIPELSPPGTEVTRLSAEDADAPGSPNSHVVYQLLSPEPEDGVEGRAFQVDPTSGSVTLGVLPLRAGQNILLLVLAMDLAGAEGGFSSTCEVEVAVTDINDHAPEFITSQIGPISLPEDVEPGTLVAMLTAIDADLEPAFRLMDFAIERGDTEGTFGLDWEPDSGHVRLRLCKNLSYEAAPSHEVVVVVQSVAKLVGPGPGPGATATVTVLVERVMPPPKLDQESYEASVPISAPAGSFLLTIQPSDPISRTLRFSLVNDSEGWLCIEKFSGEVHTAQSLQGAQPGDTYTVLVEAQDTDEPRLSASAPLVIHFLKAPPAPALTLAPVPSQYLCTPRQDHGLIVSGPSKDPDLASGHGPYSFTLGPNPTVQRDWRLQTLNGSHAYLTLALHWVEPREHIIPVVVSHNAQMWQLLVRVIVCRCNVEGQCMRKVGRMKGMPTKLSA


Columns and labels:
[1] = biological target: human CDH17 as originally expressed in cells (cell surface CDH17 on AsPC1, GP2d and other cancer cell lines) (human) (UniProt Q12864); experiment: flow cytometry competition on AsPC1 cells: unlabelled HBMAB81 0.03-1800 nM against 0.97 nM HBMAB81-AF647, MFI
[2] = biological target: human CDH17 His Tag (Sino biological, catalog number 11360-H08H) (human) (UniProt Q12864); experiment: Octet BLI, antibody on AHC biosensor, antigen in solution
[3] = biological target: human CDH17 as originally expressed in cells (cell surface CDH17 on AsPC1, GP2d and other cancer cell lines) (human) (UniProt Q12864); experiment: flow cytometry, labelled antibody on AsPC1 cells
[4] = biological target: T3, human CDH17 as originally expressed in cells (cell surface CDH17 on AsPC1, GP2d and other cancer cell lines) (human, UniProt Q12864 23-832); experiment: flow cytometry titration on CDH17 positive AsPC1 cells
T3 construct: whole, on cells; Endogenous CDH17 on human cancer cell lines; AsPC1 and GP2d are named CDH17 positive; also called CDH17 positive AsPC1 cells; GP2d cells
Description: (§1) To determine the binding of recombinant antibody to cell surface CDH17 receptors, cells were first harvested and resuspended in cell staining buffer (BioLegend, Cat #420201) at 1.3-1.5×10⁶ cells/mL. Then, the cells were treated with human Fc receptor blocking reagent (BioLegend, Cat #422302) on the ice for 10 min. The resulting cell suspension was aliquoted into 50 μL aliquots. […] The cells were incubated on the ice for 1 hour and then washed with cell staining buffer twice. 50 μL of secondary antibody (PE conjugated goat anti-human Fc, eBioscience™, 1:250 dilution) was added to each sample to resuspend the cells. The cells were incubated on the ice for another 20 min. Cells were subsequently washed twice with cell staining buffer and resuspended in 4% PFA to fix the cells. The samples were analyzed using iQue3 to measure the median fluorescence intensity using corresponding channels.

[5] = biological target: T3, human CDH17 as originally expressed in …; experiment: cell-based or functional assay
[6] = biological target: T3, human CDH17 as originally expressed in …; experiment: flow cytometry titration of recombinant human IgG1 on CDH17-positive AsPC1 cells, 0.001-200 nM, PE anti-human Fc, MFI
Description: as §1

[7] = biological target: cynomolgus CDH17-His tag (Acro Biosystems, catalog number CA7-C52H4) (cynomolgus); experiment: Octet BLI, antibody on AHC biosensor, antigen in solution
[8] = biological target: T4, human CDH17 His Tag (Sino biological, catalog number 11360-H08H) (human, UniProt Q12864 23-787); experiment: as above
T4 construct: Bought recombinant protein; also called hCDH17; human CDH17 protein; not shown: His tag
Description: (§2) The affinity between CDH17 antibodies and CDH17 antigens and homologues was determined by Octet (Octet Red 384) instrument. Anti-hIgG Fc Capture (AHC) Biosensors were selected, and the sensors were balanced with buffer solution for 10 min. Subsequently, sensors were dipped into the wells containing 1 μg/ml of CDH17 lead antibodies to load onto the probes. The excess unbound antibodies were washed off. The antigen binding was performed in the wells containing serially diluted human CDH17-His tag (Sino biological, catalog number 11360-H08H), cynomolgus CDH17-His tag (Acro Biosystems, catalog number CA7-C52H4), homologs human CDH6-His tag (Acro Biosystems, catalog number CA6-H5229) and human CDH16-His tag (Sino biological, catalog number 10915-H08H), with concentration ranging from 200 nM to 3.1 nM, for 5 min. Then probes were dipped into wells containing renewed buffer to initiate the dissociation for another 15 min.

[9] = biological target: T1, human CDH6-His tag (Acro Biosystems, …); experiment: Octet BLI, antibody on AHC biosensor, antigen 200 nM to 3.1 nM
Description: as §2

[10] = biological target: T2, human CDH16-His tag (Sino biological, …); experiment: as above
Description: as §2

Kd [4] | EC50 (read off the curve) [6] | Kd [7] | koff [7] | kon [7] | Kd [8] | koff [8] | kon [8] | binding result [9] | binding result [10] | Molecule | IC50 of indirect killing assay to evaluate the internalization in AsPC1 cells [5] | further results
 |  |  |  |  |  |  |  |  |  | HBMAB-81, reformatted mAb with the CDH17 binding arm from bispecific antibody BI 905771 and human IgG1 backbone |  | IC50 (read off the curve) [1]: 0.3 nM; Kd [2]: 4 nM; koff [2]: 0.00136 s⁻¹; kon [2]: 340000 M⁻¹ s⁻¹
 |  |  |  |  |  |  |  |  |  | HBMAB81-AF647 (HBMAB81 mAb labeled with Alexa Flour 647) (antibody) |  | EC80 [3]: 0.97 nM
1.69 nM | ~2 nM |  |  |  |  |  |  |  |  | 4F9 anti-CDH17 recombinant antibody (human IgG1) (antibody, V domains shown) VH: QVQLQESGPGLVKPSGTLSLTCAVSGGSISSSNWWSWVRQPPGKGLEWIGEIYHSGSTSYNPSLKSRVTISVDKSKNQFSLKLSSVTAADTAVYYCARNDWGFPLDCWGQGTLVTVSS VL: DIQMTQSPSSLSASVGDRVTITCRASQSISSYLNWYQQKPGKAPKLLIYAASSLQSGVPSRFSGSGSGTHFTLTISSLQPEDFATYYCQQSHNIPITFGQGTRLEIKR | 0.29 nM | 
0.1 nM |  | 15 nM | 0.0012 s⁻¹ | 80000 M⁻¹ s⁻¹ | 14.2 nM | 0.00138 s⁻¹ | 97500 M⁻¹ s⁻¹ | no binding (tested: 200 nM) | no binding (tested: 200 nM) | 10E11 anti-CDH17 recombinant antibody (human IgG1) (antibody, V domains shown) VH: EVQLVQSGTEVKKPGESLKISCKDSGYRFSSYWIGWVRQMPGKGLEWMGIIYPGDSDTRYSPSFQGQVTISADKSISTAYLQWRSLKASDTAMYYCARRGWVNYFDYWGQGTLVTVSS VL: DIQMTQSPSSVSASVGDRVTITCRASQGISNWLGWYQQKPGKAPKLLIYAASSLQSGVPSRFSGSGSGTDFTLTISSLQPEDFATYYCQQANSFPLTFGGGTKVEIKR | 0.08 nM | 
2.32 nM | ~3 nM |  |  |  |  |  |  |  |  | 15A4 anti-CDH17 recombinant antibody (human IgG1) (antibody, V domains shown) VH: QVQLVESGGGVVQPGRSLRLSCAASGFNFSSYGMHWVRQAPGKGLEWVAFVWYDGSNQNYADSVKGRFTISRDNSNNTLYLQMNSLRAEDTAVYYCARDRYSSGWDVFDYWGQGTLVTVSS VL: DIQMTQSPSSVSASVGDRVTITCRASQGISSWLAWYQQKPGKAPKLLIFAASSLQSGVPSRFSGSGSGTGFTLTISSLQPEDFATYYCQQAKSFPPTFGQGTKVEIKR | 1.99 nM | 
0.07 nM |  | 2.5 nM | 0.00016 s⁻¹ | 620000 M⁻¹ s⁻¹ | 2.2 nM | 0.000507 s⁻¹ | 230000 M⁻¹ s⁻¹ | no binding (tested: 200 nM) | no binding (tested: 200 nM) | 14B12 anti-CDH17 recombinant antibody (human IgG1) (antibody, V domains shown) VH: QVQLQESGPGLVKPSETLSLTCTVSGGSINTYYRSWIRQPPGKGLEWIGYIYYSGNTNYNPSLKSRVTISADTSKNQFSLNLISVTAADTAMYYCARAQYGEEAFDIWGQGTLVTVSS VL: DIQMTQSPSSLSASVGDRVTITCRASQSITTYLNWYQQKPGKAPQLLIFAASRLQTGVPSRFSGSGSGTDFTLTISSLLPGDFATYYCQQSYNTPPTFGGGTKVEIKR | 0.09 nM | 
